Results from US20130164256A1 (AbbVie / Abbott, published 2013).
Substitutions are numbered along the chain they refer to.

B1: hMAK195-AM14 (antibody, V domains shown)
VH: EVQLVESGGGLVQPGGSLRLSCAASGFTFSNYGVSWVRQAPGKGLEWVSMIWADGSTHYASSLKGRFTISRDNSKNTLYLQMNSLRAEDTAVYYCAREWQHGPVAYWGQGTLVTVSS
VL: DIQMTQSPSSLSASVGDRVTITCKASQAVSSAVAWYQQKPGKAPKLLIYWASTRHTGVPSRFSGSGSGTDFTLTISSLQPEDFATYYCQQHYSTPFTFGQGTKLEIKR
notes: Full-length IgG; also called rHC3; hMAK195 rHC3
B2: AE11-5 AM4 (antibody, V domains shown)
VH: EVQLVQSGAEVKKPGSSVKVSCKASGGTFSWYAISWVRQAPGQGLEWMGGITPILGSPIYAQKFQGRVTITADESTSTVYMELSSLRSEDTAVYYCARGVYYDPKRADYWGQGTLVTVSS
VL: EIVLTQSPDFQSVTPKEKVTITCRASQRIGSSLHWYQQKPDQSPKLLIKHASQSVSGVPSRFSGSGSGTDFTLTINSLEAEDAATYYCHQSRSSPPPTFGQGTKVEIK
notes: Full length IgG converted from scFv clone J703M1S3#30; Human IgG1 (hCg1,z,non-a,mut(234,235)) with human kappa; also called J703M1S3#30
B3: AE11-5 AM1 (antibody, V domains shown)
VH: B2 VH with I34T, P104H, K105R
VL: B2 VL with R28S, S31N, S32T, A51V, S91K, R92V, P96S
notes: Full length IgG converted from scFv clone J703M1S3#2; Heavy chain plasmid is pHybE-hCg1,z,non-a,mut(234,235), i.e. human IgG1 with mutations at 234 and 235; Light chain plasmid is pHybE-hCk, i.e. human kappa; also called J703M1S3#2
B4: AE11-5 AM9 (antibody, V domains shown)
VH: B2 VH with V100I
VL: B2 VL with R28S, A51V, V55L, S91R, R92S, P96S
notes: Full length IgG converted from scFv clone J703M1S3#69; Human IgG1 (hCg1,z,non-a,mut(234,235)) with human kappa; also called J703M1S3#69
B5: AE11-5 AM5 (antibody, V domains shown)
VH: B2 VH with A33P, S57A, P58G, P104F
VL: B2 VL with R28S, V55T, R92S, P97S
notes: Full length IgG converted from scFv clone J703M1S3#33; Human IgG1 (hCg1,z,non-a,mut(234,235)) with human kappa; also called J703M1S3#33
B6: AE11-5 AM10 (antibody, V domains shown)
VH: B2 VH with P104Y
VL: B2 VL with R28S, S32N, V55I, S91T, S93T, P97L
notes: Full length IgG converted from scFv clone J703M1S3#90; Human IgG1 (hCg1,z,non-a,mut(234,235)) with human kappa; also called J703M1S3#90
B7: AE11-5 AM8 (antibody, V domains shown)
VH: B2 VH with S57T, P104F
VL: B2 VL with R28T, V55I, R92S
notes: Full length IgG converted from scFv clone J703M1S3#38; Human IgG1 (hCg1,z,non-a,mut(234,235)) with human kappa; also called J703M1S3#38
B8: AE11-5 AM3 (antibody, V domains shown)
VH: B2 VH with S57T, P58A, I59N
VL: B2 VL with R28S, S32R, V55T, R92G, P97R
notes: Full length IgG converted from scFv clone J703M1S3#26; Human IgG1 (hCg1,z,non-a,mut(234,235)) with human kappa; also called J703M1S3#26
B9: AE11-5 AM2 (antibody, V domains shown)
VH: B2 VH with S57A, P58A, I59N
VL: EIVLTQSPDFQSVTPKEKVTITCRASQSIGSTLHWYQQKPDQSPKLLIKHASQSNSGVPSRFSGSGSGTDFTLTINSLEAEDAATYYCHQSSSLPPPTFGQGTKVEI
notes: Full length IgG converted from scFv clone J703M1S3#13; Human IgG1 (hCg1,z,non-a,mut(234,235)) with human kappa; also called J703M1S3#13
B10: AE11-5 AM6 (antibody, V domains shown)
VH: B2 VH with P58A, I59T, V100I
VL: B2 VL with R28T, V55I, S91T, R92S, S94L, P96T
notes: Full length IgG converted from scFv clone J703M1S3#35; Human IgG1 (hCg1,z,non-a,mut(234,235)) with human kappa; also called J703M1S3#35
B11: hMAK199-AM5 (antibody, V domains shown)
VH: EVQLVQSGAEVKKPGASVKVSCKASGYTFRNYGIIWVRQAPGQGLEWMGWINTYTGKPTYAQKFQGRVTMTTDTSTSTAYMELSSLRSEDTAVYFCARKLFTTVDVTDNAMDYWGQGTTVTVSS
VL: DIQMTQSPSSLSASVGDRVTITCRASQDISNYLNWYQQKPGKAPKLLIYYTSRLQSGVPSRFSGSGSGTDYTLTISSLQPEDFATYFCQQGNTWPPTFGQGTKLEIK
B12: hMAK199-AM9 (antibody, V domains shown)
VH: B11 VH with R30S, I35N, K57Q, T59S, F95Y, T102K, V104E, D105A, N109Y
VL: B11 VL with D28N, S30Y, Y32V, T51A, Y71F, W94M
B13: hMAK199-AM6 (antibody, V domains shown)
VH: B11 VH with R30N, I35N, L100F, F101R, T102N, D105A, N109Y
VL: B11 VL with S30Y, N31D, Y32V, T51A, Y71F, F87Y, N92I, W94L
B14: hMAK199-AM2 (antibody, V domains shown)
VH: B11 VH with R30N, F64L, T102N
VL: B11 VL with T93S
B15: hMAK199-AM4 (antibody, V domains shown)
VH: B11 VH with R30N, F95Y, T102N, D105A
VL: B11 VL with S30E, Y71F, W94Q
B16: hMAK199-AM3 (antibody, V domains shown)
VH: B11 VH with R30N, K57V, F95Y, T102N
VL: B11 VL with S30Y, W94Q
B17: hMAK199-AM10 (antibody, V domains shown)
VH: B11 VH with R30N, T55S, V104M
VL: B11 VL with Y32F, W94Q
B18: hMAK199-AM7 (antibody, V domains shown)
VH: B11 VH with I35T, V104M
VL: B11 VL
B19: hMAK195-AM20 (antibody, V domains shown)
VH: B1 VH with S35T, L63V
VL: B1 VL with A28L
B20: hMAK195-AM19 (antibody, V domains shown)
VH: B1 VH with V104A
VL: B1 VL
B21: hMAK195-AM26 (antibody, V domains shown)
VH: B1 VH with S61D, S62T, L63V, V104L
VL: B1 VL with K24R, A28L, S93R
B22: hMAK195-AM11 (antibody, V domains shown)
VH: B1 VH with S35N, W52A, S56F, H58D, L63V, Q100H
VL: B1 VL
B23: hMAK195-AM18 (antibody, V domains shown)
VH: B1 VH with S35T, L63V, V104S
VL: B1 VL
B24: hMAK195-AM21 (antibody, V domains shown)
VH: B1 VH with S35T, L63V
VL: B1 VL with K24R, A28L, T53A, S93K
B25: hMAK195-AM15 (antibody, V domains shown)
VH: B1 VH with S35T, A53S, H58D, L63V
VL: B1 VL
B26: hMAK195-AM13 (antibody, V domains shown)
VH: B1 VH with M50L, W52R, A53G, H58D, Q100H
VL: B1 VL
B27: hMAK195-AM23 (antibody, V domains shown)
VH: B1 VH with S35T, S61D, L63V, G65S, V104L
VL: B1 VL with K24R, A28L, R54L, T56S
B28: hMAK195-AM22 (antibody, V domains shown)
VH: B1 VH with S35T, L63V
VL: B1 VL with K24R, A28L, T56S, S93R
B29: hMAK195-AM24 (antibody, V domains shown)
VH: B1 VH with S35E, M50G, S61D, S62T, L63V, G65S
VL: B1 VL with A28L, R54L, S93R

Each binder was assayed against T1, human TNF-α (human, UniProt P01375 77-233) (assay: ELISA: IgG captured on goat anti-human IgG-Fc, biotin-human TNF titrated, streptavidin-HRP).
T1 construct: It was biotinylated in the ELISA and unlabelled in the L929 bioassay (prepared at Abbott Bioresearch Center); also called hTNFa; hTNF
T1 sequence (P01375 77-233 R107D limits assumed): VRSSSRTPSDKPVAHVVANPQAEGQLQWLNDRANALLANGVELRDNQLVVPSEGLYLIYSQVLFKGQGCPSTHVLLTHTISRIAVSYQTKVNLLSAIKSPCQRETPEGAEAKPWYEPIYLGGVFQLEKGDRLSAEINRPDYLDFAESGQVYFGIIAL

| EC50 | Binder |
| --- | --- |
| 0.051 nM | B1 |

These binders were tested against T2, cynomolgus monkey TNF (cynomolgus monkey, UniProt P79337 77-233, limits assumed, biotin label in the ELISA (site not stated)) (assay: ELISA; IgG captured on goat anti-human IgG-Fc, serially diluted biotinylated cyno TNF, streptavidin-HRP).
T2 construct: also called cynoTNF; cyno TNF
T2 sequence (P79337 77-233 limits assumed): as the sequence (P01375 77-233 R107D limits assumed) above, with D31R, L37V, R44T, T72N, R138L counted along it
Description: (§1) The following protocol is used to characterize the binding of TNF antibodies to biotinylated human or cyno TNF by enzyme-linked immunosorbent assay (ELISA). An ELISA plate was coated with 50 μl per well of goat anti human IgG-Fc at 2 μg/ml, overnight at 4° C. The plate was washed 3 times with PBS/Tween. 50 μl Mab diluted to 1 μg/ml in PBS/0.1% BSA was added to appropriate wells and incubated for 1 hour at room temperature (RT). The plate was washed 3 times with PBS/Tween. 50 μl of serial diluted biotin-human TNF was added to appropriate wells and incubated for 1 hour at RT. The plate was washed 3 times with PBS/Tween. 50 μl of streptavidin-HRP diluted 1:10,000 in PBS/0.1% BSA was added to appropriate wells and incubated for 1 hour at RT. The plate was washed 3 times with PBS/Tween. 50 μl of TMB was added to appropriate wells and the reaction was allowed to proceed for 1 minute. The reaction was stopped with 50 μl/well 2N H₂SO₄ and the absorbance read at 450 nm.

| EC50 | Binder |
| --- | --- |
| 750 nM | B2 |
| 2.14 nM | B3 |
| 5.29 nM | B4 |
| 2.2 nM | B5 |
| 0.28 nM | B6 |
| 58.6 nM | B7 |
| 1.55 nM | B8 |

These binders were tested against T3, human TNF-α (human, UniProt P01375 77-233, biotin label in the ELISA (site not stated); unlabelled in the L929 bioassay) (assay: ELISA; IgG captured on goat anti-human IgG-Fc, serially diluted biotinylated human TNF, streptavidin-HRP).
T3 construct: also called hTNF; hTNF-α
T3 sequence (P01375 77-233 R107D limits assumed): as the sequence (P01375 77-233 R107D limits assumed) above
Description: as §1

| EC50 | Binder |
| --- | --- |
| 18.3 nM | B2 |
| 522 nM | B9 |
| 1.06 nM | B3 |
| 16.7 nM | B4 |
| 1.37 nM | B10 |
| 17.7 nM | B5 |
| 0.98 nM | B6 |
| 250 nM | B7 |
| 1.57 nM | B8 |

What follows are binders tested against Rhesus/Macaque TNF (Rhesus/Macaque, UniProt P48094 77-233) (assay: cell-based or functional assay).
Target sequence in this assay (P48094 77-233 limits assumed): as the sequence (P01375 77-233 R107D limits assumed) above, with D31R, R44T, T72N, R138L counted along it

| rhesus TNF neutralization IC50 | Binder |
| --- | --- |
| 0.02 nM | B11 |
| 0.089 nM | B12 |
| 0.004 nM | B13 |
| 0.01 nM | B14 |
| 0.005 nM | B15 |
| 0.019 nM | B16 |
| 0.034 nM | B17 |
| 0.051 nM | B18 |

What follows are binders tested against T1, human TNF-α (assay: cell-based or functional assay).

| hu TNF neutralization IC50 (L929 bioassay) | Binder |
| --- | --- |
| 0.0401 nM | B1 |

What follows are binders tested against Rhesus/Macaque TNF (rhesus/macaque, UniProt P48094 77-233) (assay: cell-based or functional assay).
Chain of Rhesus/Macaque TNF (rhesus/macaque, UniProt P48094 77-233) (P48094 77-233 limits assumed): as the sequence (P01375 77-233 R107D limits assumed) above, with D31R, R44T, T72N, R138L counted along it

| rhesus TNF neutralization IC50 (L929 bioassay) | Binder |
| --- | --- |
| 0.596 nM | B19 |
| 1.21 nM | B20 |
| 4.61 nM | B1 |
| 0.249 nM | B21 |
| > 25 nM | B22 |
| 0.441 nM | B23 |
| 0.09 nM | B24 |
| > 150 nM | B25 |
| 4.64 nM | B26 |
| 2.63 nM | B27 |
| 0.271 nM | B28 |
| 0.557 nM | B29 |

Target: Rhesus/Macaque TNF (Rhesus/Macaque, UniProt P48094 77-233)
Assay: cell-based or functional assay
Remark: another data set of the same source
Target sequence in this assay (P48094 77-233 limits assumed): as the sequence (P01375 77-233 R107D limits assumed) above, with D31R, R44T, T72N, R138L counted along it

| rhesus TNF neutralization IC50 | Binder |
| --- | --- |
| 0.109 nM | B2 |
| 0.756 nM | B9 |
| 0.251 nM | B3 |
| 0.123 nM | B4 |
| 0.652 nM | B10 |
| 0.613 nM | B5 |
| 0.14 nM | B6 |
| 3.04 nM | B7 |
| 0.165 nM | B8 |

Each binder was assayed against T3, human TNF-α (assay: cell-based or functional assay).

| hu TNF neutralization IC50 | Binder |
| --- | --- |
| 0.259 nM | B2 |
| 1.24 nM | B9 |
| 0.439 nM | B3 |
| 0.391 nM | B4 |
| 2.03 nM | B10 |
| 0.968 nM | B5 |
| 0.678 nM | B6 |
| 1.36 nM | B7 |
| 0.291 nM | B8 |
